Experimental findings from the Human Domainome abundance scans (Beltran et al. 2025) are described below.

B1: Peroxisome proliferator-activated receptor delta, residues 71 to 145; numbered along this chain, Q03181 (parent)
chain: NMECRVCGDKASGFHYGVHACEGCKGFFRRTIRMKLEYEKCERSCKIQKKNRNKCQYCRFQKCLALGMSHNAIRF

± gives the uncertainty stated by the source.

In this data set the parent is B1. In words: abundance fitness (aPCA) (normalised: wild type 0, dead -1); higher = more abundant; growth selection in yeast, the domain comes from the species named. Particulars: Homo sapiens.
As to V18A, the abundance fitness was -0.104 ± 0.044. In the case of V18C it was -0.145 ± 0.066. In the case of V18D it was -0.396 ± 0.082. V18S: the abundance fitness is -0.505 ± 0.066. Under S69F stands -0.268 ± 0.075. Regarding S69N, the abundance fitness was -0.118 ± 0.08. For S69P, the abundance fitness was -0.461 ± 0.092. In the case of S69M it was 0.029 ± 0.054; in that of S69E, 0.022 ± 0.043; in that of R59T, -0.218 ± 0.054. In the case of R59C it was -0.442 ± 0.1; in that of R59N, -0.704 ± 0.2; in that of R59I, -0.837 ± 0.19. R59F: the abundance fitness is -0.042 ± 0.079.

For the variant R59M, the abundance fitness was -0.023 ± 0.053. Under F14R stands -0.138 ± 0.035; under F14L, 0.085 ± 0.034; under F14W, -0.118 ± 0.052. Under F14T stands 0.066 ± 0.042. For F14Q, the abundance fitness is -0.064 ± 0.056. On to F14A, for which the abundance fitness is -0.028 ± 0.039.

As for F14Y, the abundance fitness turned out to be 0.038 ± 0.063. In the case of A20V it was -0.077 ± 0.045; in that of C21Y, -0.599 ± 0.15. Regarding C21D, the abundance fitness is -0.875 ± 0.37. In the case of C21G it was -0.633 ± 0.067; in that of C21E, -0.847 ± 0.15; in that of N71F, -0.477 ± 0.11. In the case of N71L it was -0.412 ± 0.054; in that of N71Q, 0.034 ± 0.051; in that of N71R, -0.242 ± 0.036. Regarding N71G, the abundance fitness was -0.038 ± 0.035.

As for N71Y, the abundance fitness was -0.337 ± 0.089. In the case of F75A it was 0.15 ± 0.08; in that of F75G, 0.218 ± 0.047. In the case of F75L it was 0.128 ± 0.05. In the case of F75N it was -0.021 ± 0.094; in that of F75R, 0.066 ± 0.054; in that of K50P, -0.089 ± 0.071. For K50M, the abundance fitness is 0.034 ± 0.054. For K50D, the abundance fitness worked out at 0.094 ± 0.059. On to K50Y, for which the abundance fitness was -0.295 ± 0.13. On to K50V, for which the abundance fitness was -0.129 ± 0.041. Under K50T stands -0.018 ± 0.051. Regarding E39V, the abundance fitness is -0.061 ± 0.034. In the case of E39W it was -0.518 ± 0.064. Under E39S stands -0.094 ± 0.037; under E39A, -0.057 ± 0.036; under E39H, -0.336 ± 0.1. In the case of E39G it was -0.221 ± 0.033; in that of K49V, 0.066 ± 0.12; in that of K49G, 0.202 ± 0.13. As to K49S, the abundance fitness is -0.207 ± 0.41.

With K25A, the abundance fitness came to 0.122 ± 0.036. Consider K25Y, for which the abundance fitness was determined as 0.114 ± 0.065.

Turning to K25P, the abundance fitness is -0.878 ± 0.13. Under K25W stands 0.01 ± 0.043; under I73H, -0.017 ± 0.069. Turning to I73L, the abundance fitness stood at 0.087 ± 0.037. For I73R, the abundance fitness is -0.117 ± 0.036.

Regarding G13P, the abundance fitness is -0.363 ± 0.079.

With G13E, the abundance fitness is -0.274 ± 0.052. In the case of G13H it was -0.545 ± 0.12. For G13I, the abundance fitness was -0.324 ± 0.13.

On to G13D, for which the abundance fitness is -0.103 ± 0.056.

G13C: the abundance fitness is -0.596 ± 0.12. For G13Y, the abundance fitness is -0.385 ± 0.096. Under R5V stands 0.091 ± 0.035; under R5N, 0.089 ± 0.064.

Regarding R5W, the abundance fitness is -0.118 ± 0.047. As for R5A, the abundance fitness came out at 0.175 ± 0.034. Regarding F28E, the abundance fitness is -0.667 ± 0.12. Turning to F28R, the abundance fitness is -0.823 ± 0.091. In the case of F28W it was -0.203 ± 0.054. For F28C, the abundance fitness was -0.882 ± 0.28. In the case of F28M it was -0.156 ± 0.081. With S12K, the abundance fitness is -0.248 ± 0.06. For S12H, the abundance fitness is -0.238 ± 0.092. Turning to S12N, the abundance fitness is -0.098 ± 0.067. Under S12Y stands -0.138 ± 0.072.

For S12E, the abundance fitness was -0.123 ± 0.052. Turning to S12R, the abundance fitness was -0.351 ± 0.046. In the case of S12P it was -0.39 ± 0.07. For S12Q, the abundance fitness was -0.115 ± 0.057. Consider S12A, for which the abundance fitness is -0.119 ± 0.042. Under K54W stands -0.036 ± 0.047. Under K54P stands -0.037 ± 0.053; under R52P, 0.128 ± 0.045. Under R52Q stands -0.03 ± 0.052; under R52E, -0.037 ± 0.042; under L36C, -0.13 ± 0.064. On to L36D, for which the abundance fitness was -0.461 ± 0.14.

Regarding Y57F, the abundance fitness is -0.186 ± 0.1.

As for Y57M, the abundance fitness was -0.867 ± 0.22. In the case of Y57E, the abundance fitness was -0.601 ± 0.084. In the case of Y57T it was -0.77 ± 0.16; in that of Y57N, -0.946 ± 0.27; in that of Y57R, -0.671 ± 0.069.

Take Y38K: the abundance fitness is -0.776 ± 0.14. For Y38I, the abundance fitness was -0.483 ± 0.12. Regarding H70T, the abundance fitness was 0.157 ± 0.11. Under H70R stands 0.063 ± 0.052; under H70K, 0.019 ± 0.1; under H70V, 0.099 ± 0.065.

Consider H70G, for which the abundance fitness stood at 0.048 ± 0.055.

As for H70N, the abundance fitness is 0.013 ± 0.087. As to R29E, the abundance fitness came out at 0.258 ± 0.043. For R29Y, the abundance fitness is -0.089 ± 0.086. In the case of M34C it was -0.032 ± 0.058. In the case of M34T it was -0.36 ± 0.077; in that of M34E, 0.118 ± 0.051; in that of M34H, 0.047 ± 0.075.

For the variant I47Y, the abundance fitness is -0.419 ± 0.11. Under I47D stands -0.126 ± 0.054; under I47G, -0.269 ± 0.025; under I47E, -0.235 ± 0.035. Take I47N: the abundance fitness was -0.4 ± 0.098. In the case of C55M it was -0.827 ± 0.17; in that of C55R, -0.868 ± 0.076; in that of C55F, -0.824 ± 0.27.

Take C55S: the abundance fitness was -0.823 ± 0.12. As to C58D, the abundance fitness is -0.719 ± 0.17. In the case of C58A it was -0.688 ± 0.078.

Regarding C58N, the abundance fitness is -1.09 ± 0.34. As to C58P, the abundance fitness was -1.04 ± 0.18. For the variant C58L, the abundance fitness was -0.769 ± 0.086.

As to K40G, the abundance fitness was -0.472 ± 0.045. K40C: the abundance fitness was -0.216 ± 0.074. In the case of K40R it was -0.095 ± 0.033; in that of K40V, 0.026 ± 0.036; in that of K40F, 0.02 ± 0.073. Under A65H stands -0.288 ± 0.089; under A65R, -0.086 ± 0.032; under A65S, -0.011 ± 0.037.

For A65L, the abundance fitness was -0.098 ± 0.036. Under A65I stands -0.162 ± 0.11; under A65D, 0.092 ± 0.056; under F60Y, -0.223 ± 0.11. Turning to F60V, the abundance fitness is -0.622 ± 0.066.

Take F60H: the abundance fitness is -0.528 ± 0.17.

F60C: the abundance fitness was -0.84 ± 0.16. Under F60Q stands -1.04 ± 0.21; under C7E, -0.656 ± 0.099.

As to C7M, the abundance fitness was -0.984 ± 0.18. Take C7G: the abundance fitness was -0.504 ± 0.06. With G67S, the abundance fitness was -0.694 ± 0.077. Under G67I stands -0.74 ± 0.22; under I32D, -0.5 ± 0.12. In the case of I32M it was -0.142 ± 0.061; in that of I32H, -0.405 ± 0.12; in that of I32F, -0.185 ± 0.092. Turning to I32A, the abundance fitness was -0.221 ± 0.054.

Consider I32C, for which the abundance fitness was -0.234 ± 0.091. In the case of H19D it was 0.205 ± 0.059; in that of H19Y, 0.038 ± 0.063. Turning to H19R, the abundance fitness was -0.049 ± 0.032.

For the variant H19F, the abundance fitness came out at 0.247 ± 0.095. Under H19Q stands 0.131 ± 0.047; under H19T, 0.041 ± 0.042; under H19E, 0.136 ± 0.046.

In the case of H19S, the abundance fitness amounted to 0.046 ± 0.037.

For the variant H19M, the abundance fitness was 0.122 ± 0.047. S44R: the abundance fitness is -0.05 ± 0.032.

For S44P, the abundance fitness is -0.134 ± 0.058. With S44Q, the abundance fitness is 0.069 ± 0.049. On to S44I, for which the abundance fitness is -0.212 ± 0.091.

On to S44M, for which the abundance fitness is 0.028 ± 0.047.
